From US20200291071A1

Columns and labels:
[1] = target: r6,Glm-Tei-pseudoaglycone (compound 12); assay: ITC
[2] = target: r6,Glm-Tei-pseudoaglycone (compound 12); assay: ITC (isothermal titration calorimetry), exothermic injections, sigmoidal isotherm over molar ratio about 0.45 to 1.85
[3] = target: r4,Glm-Tei-pseudoaglycone (compound 6)
[4] = target: r6,Glm-Tei-pseudoaglycone (compound 12)

Kd [1] [µM]	Kd [2] [µM]	Molecule	Km (acyl-transfer kinetics, HPLC) [3]	Km (acyl-transfer kinetics, HPLC) [4]
5	5.1	Dbv27 (methyltransferase encoded by gene dbv27) (enzyme)		
		Orf11*S (acyltransferase, single mutant W163A of Orf11*) (protein) MGSSHHHHHHSSGLVPRGSHMMMDPETVRIALGLEERTAAWLTELDELGPPAEPVRLPRGEEARDLLRRLEVPELDAEEIVAAAPDPDRDPALWWLLERTHHAIVRHMGDHRAKPRGGPPLPYEGGAAARYFHVYVFLATVPAVRRFHAERGIPDEVGWETLTQLGELVAIHRRKYGQGGMNMQAWTTYHLRGILYRLGRLQFSLATGKDGTPHLGLHVPEWGGPLLPKAYDESLHRARPFFDRHFPEHGARVAWGSSWMLDPQLEEYLTEDSNIIQLARFWTLTDSAPEPGNADGDSSILEFVFRYNGQPLDELPQRSSLERAVIAHLKAGRHWHMRTGFVKLP	Km=0.07 mM	Km=0.3±0.03 mM
